From the domain aggregation screens of Martell et al. (2025)

Test: soluble fraction after stress (log2 fold change); higher = more stays soluble; pooled small domains, quantitative proteomics
Conditions: stress: 75 degC
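Note: 20 min heating vs room temperature control held 20 min.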

Sequence	soluble fraction (log2)
HMNEWVSVEERLPTDERPVLAFIGYADTMNGFITTSYYFRFDPDPHWLGEGLIPVGLKTLFWMPLPAP	0.277
HMGKTEMPFSTFLTEVDKGNIVSVDIRGSEISGNFRDGKGFKTYSPNYPNLVEKLSAKGVAITAGPR	0.389
HMIILYTDEQQRIIDRLNEFIGEQPSQNEAAKLLGISAPILTNLRKGTYTGTVDKFMNKLAAYFNIKADLG	-1.3
HMLPELIVTTKKGVTVTVTNGVITYSATSNGKATFTVPNYGKWTVSATINGTVISKVVDVTEAKQIPVLLG	-1.07
HMEPDEESVRLKEEILSRIDYWHTTMPYMGTRKLAAKLRTEGYAVGRKLVRTYMREMGIHAVYP	-0.103
HMGDTIFINNNFYVKHIVEFGETIDIISKIYDVSVNKILETNETSTKLYSGQSLFIPININV	-3.47
HMVVLPGEVLRINVIQEGKEHGQGVGYMDDGTMVVIENGREFIGEYMEVNVTKVLQTAAGRMIFGRVD	-2.31
HMEAPMPIFWRPQFRIGHDDIDADHRYLILLINTVELVLRFPDDPRNVELALTELRRYAEDHFEREER	-0.0783
HMNFTMERLYTKELTSEDIDEIKKELNSMGYTEGVEFNIIKGDKTSFIMAERQLKAKMLSHLSDLGLPRGA	-0.245
HMDVQPHIYLRKLDQFWPADLHSLILYTLDGRRLWSADSGNIPALPHRASSLVILEATWDNGQRTRRKQFL	-1.75
HMNVTIGESIKNVINHYGTPIYSYNPNNQEKYYEFHTNKGVLVVTAIGKKNTGYVTRVSMTY	-1.04
HMDIRVAHVDDDMSFGEAFAQARSQVGPGGVFEWHGKLYGTYTAEEWASMSPAERSQYQQAVFN	-0.133
HMAVSVPDVMGLTYEEAYNKITAEGLLVNRLESYTGLVEKGRVISQLPVGGEPAAKGSTVNVNVSL	0.466
HMSDFDPTLILDLIKGSGEALTKREIARALGIKGGDKRIELKSHLKSMEAEGVIVKQAGGAYSVP	-0.132
HMHEYSDIEHRILDAAREVFIRKGYDSATMGDIALLAGMSRTSVNYYFRNKERLFEAIFEEII	-1.91
HMINRPVYVPLYTNLDVKDAAEIAEKLEENNIAYKLEDQGETILVNPEQKYKVRLMLAQEGLPKG	0.0786
HMTHEAEDLNALRMMVRDPIFSSDEPDLQQLRGAVAHAPQFVDRFKELYNDYQRLAEFVQNSL	-0.993
HMQISDSSLIAKTVATVILENPEAVSDYLGGKHSVVRFMVGQIMKKTQGKANPKMATEMLETALNDL	-1.88
HMSILEIFGRNVQKYRKEQRLSQEKLAEYAGLHRTYIGMIERAEKNITLVNIEKIAKALNINLTKLLE	-4.25
HMETVQTGTVKVSNSLNVRSGAGTNYSVLGSLSNGAKVEIVGTSGSWYKIKYGSGYGYVSKDYVTVS	-0.0122

Sequence	soluble fraction (log2)
HMDSEEVYQMTKHKMDAAQISVAKRIHINLVLVKLLELHHLGYDLRHYHAQHHAFIKRLNLPEYFRFD	-1.67
HMGNGALLTLTVKERQVIQLVAEGKSNKQIARDLNVTPETIKSHMKNIFAKLKVDNRAQAAVMVQQ	-2.16
HMTYQHQSIIHRRTRGAILTAAKELLAESGISGTNMIEIADRAQVSRASLYNHFRDKHEVFLALVES	-0.591
HMEFGEVLAQLRQKRHISQAELGRAIFVSGGTISNYEKGVHFPDVEKLLLLADYFNVTTDYLLGRT	-2.65
HMPYNRRYLISNADGALYTVEENGLVKLEETNLTAELFETRGMQDIPDGKLLITLHDPTILYWHDSENLFP	-1.5
HMFGELTPDTAKRFLLTAREQEMASLIAQGLTNKEIAFRLGISEATVRTHIYNLFQKVGVQSRIELLNVLH	-1.69
HMQDNPELVARIEKAAARGTSSMSDWERSFMGSLLDSAKKWGRLTAKQHEVFQRIEKKTDPAHQAAVS	0.111
HMRSKTSYAVWTPIQIDAGSQMQALQSKGFNTVLMEGGISVGIRSDKAQAQALLNRLQGAGFTGQLREVN	-0.173
HMSFSSLSNDILSEIQKDNNITYDELSEKLQKDRATIYRNMKKLVENGLLKRVGGRKSGHWEIIE	-0.102
HMTVPAGIVLSSIRQDGDVLHIRGTAQSTERLNFFRNSFSASWGSPAQNGKRKADPVTGLVDFTISLK	-0.758
HMNSNSLSFSKFMQEVEAGRVIEVQIKGNDIQGELSDGSKFKTYSPNYPNLVDKLSENKVSIVATPL	-0.0878
HMSKPVFQTHSVRSADSATVFDVLQTLLAGTPDARIAIDPKTNAIVAWARPETQEVIAKSIMEMEG	0.0746
HMESAEQTGEELAARVNVLQTVSQALARELGREAAVEELADKMKMTVDEVKDIMKMAMDAMSM	0.294
HMKDLDSLSQEAKSVYAVFSDKPIHIDDIKRKTGLDFSKLFKAVTELELAELISSGEGKMYSL	-0.0075
HMDWVAYGAELRRRRLLAGWSVAELSRRTNLSTSIIYQVEQARTRLRPSQLTLAKLAAALGMP	-3.1
HMQSKSEINELPKSIHMAFSPKNFELFIDNLKINEIDFSNWKGELNTIQERVDGQRQIWIQDPQGYWIEIN	-0.0964
HMNKNQGVTTTNLNFRKSASTSSLVLYTIPKNTTLDILDKLPSGWYKVKYKGLTGYVSGSYV	-2.99
HMQTMTDDQVMQYVISQQEKGATQQDIVSKLLQKGVTVDQMRRIRKKYEAQQSQPGALDLTGSS	0.654
HMSDAIQLEQKIGLEAIEWYLALSEQTDDKLLYQQWQSWLAADPQHQLAWSRIEQVNHGLNTL	-1.03
